Source: US20240010750A1 (Bayer, published 2024)
Like-named read-outs stand apart in the source and are kept apart here.

T1: human alpha2-Antiplasmin (human, UniProt P08697 40-491)
T1 sequence: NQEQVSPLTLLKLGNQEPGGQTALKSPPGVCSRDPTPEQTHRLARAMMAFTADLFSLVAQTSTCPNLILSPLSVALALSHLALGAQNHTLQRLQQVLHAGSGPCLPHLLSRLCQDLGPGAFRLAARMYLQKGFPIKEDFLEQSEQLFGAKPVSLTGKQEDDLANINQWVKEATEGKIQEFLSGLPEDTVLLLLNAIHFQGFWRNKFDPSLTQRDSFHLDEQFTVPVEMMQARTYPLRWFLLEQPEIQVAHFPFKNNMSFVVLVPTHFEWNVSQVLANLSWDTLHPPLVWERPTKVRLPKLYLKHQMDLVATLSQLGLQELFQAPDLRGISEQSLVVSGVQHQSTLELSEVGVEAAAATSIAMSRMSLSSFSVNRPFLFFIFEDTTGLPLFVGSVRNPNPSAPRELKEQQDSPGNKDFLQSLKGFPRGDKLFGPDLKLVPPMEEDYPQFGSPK

T2: rabbit alpha2-Antiplasmin (rabbit (Oryctolagus cuniculus))
T2 construct: Made in house in HEK293 cells, purified by Ni-IMAC and SEC (a His tag is implied but not described); also called rabbit A2AP; Oryctolagus cuniculus A2AP
T2 chain: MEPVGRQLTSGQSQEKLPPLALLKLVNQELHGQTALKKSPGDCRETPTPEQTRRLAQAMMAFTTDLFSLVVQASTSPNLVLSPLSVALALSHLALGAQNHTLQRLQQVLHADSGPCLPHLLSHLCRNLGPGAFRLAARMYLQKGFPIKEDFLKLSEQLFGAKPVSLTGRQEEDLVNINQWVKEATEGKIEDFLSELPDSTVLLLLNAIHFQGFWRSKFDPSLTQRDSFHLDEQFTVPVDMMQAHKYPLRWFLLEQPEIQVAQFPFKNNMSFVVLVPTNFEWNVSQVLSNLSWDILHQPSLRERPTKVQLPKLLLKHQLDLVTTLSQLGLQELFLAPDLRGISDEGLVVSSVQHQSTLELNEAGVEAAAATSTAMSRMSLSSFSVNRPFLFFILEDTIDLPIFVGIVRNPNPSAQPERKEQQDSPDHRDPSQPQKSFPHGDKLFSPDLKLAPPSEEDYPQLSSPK

T3: cynomolgus alpha2-Antiplasmin (cynomolgus (Macaca fascicularis), UniProt P08697 28-491 (human entry))
T3 construct: Made in house in the same way as the rabbit protein; also called cynomolgus A2AP; Macaca fascicularis A2AP
T3 chain: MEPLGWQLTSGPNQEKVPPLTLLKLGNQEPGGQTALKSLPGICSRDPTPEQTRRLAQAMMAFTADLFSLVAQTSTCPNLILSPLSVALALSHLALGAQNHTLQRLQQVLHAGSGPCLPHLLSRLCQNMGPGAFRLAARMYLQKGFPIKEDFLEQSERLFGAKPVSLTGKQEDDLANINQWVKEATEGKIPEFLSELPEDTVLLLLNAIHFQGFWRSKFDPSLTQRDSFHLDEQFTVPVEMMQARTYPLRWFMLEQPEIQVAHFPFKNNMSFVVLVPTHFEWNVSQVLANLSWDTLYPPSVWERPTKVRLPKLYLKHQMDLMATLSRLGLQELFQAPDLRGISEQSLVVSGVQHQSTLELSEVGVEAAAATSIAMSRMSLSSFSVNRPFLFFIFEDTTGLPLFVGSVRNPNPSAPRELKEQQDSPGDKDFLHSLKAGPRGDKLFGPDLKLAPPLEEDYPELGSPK


Key:
human alpha2-Antiplasmin [1] = target: T1, human alpha2-Antiplasmin; test: cell-based or functional assay
human Plasmin = human Plasmin (human, UniProt P00747 97-580; P00747 581-810, limits assumed); test: cell-based or functional assay
human alpha2-Antiplasmin [2] = target: T1, human alpha2-Antiplasmin; test: ELISA, coated antigen, 1st exp.
Description: (§1) A standard ELISA format was used for analyzing the binding affinity of Fabs of this invention to human and rabbit alpha-2-Antiplasmin, respectively. Antigens were coated to black 384 well Maxisorp microtiter plates (Nunc; catalogue number 460518), diluted to a concentration of 1 μg/ml in 1× Coating Buffer (Candor Bioscience; catalogue number 121125). Plates were incubated overnight at 4° C. After overnight incubation, plates were washed 2× with 50 μl/well using PBS+0.05% Tween 20. Following this, 50 μl/well of blocking buffer (Smart Block; Candor Bioscience; catalogue number 113500) was added and the plates were incubated for 1 hour at room temperature. Afterwards, plates were washed for 3× using […] PBS+0.05% Tween 20 buffer. Fabs of this invention were added at different concentrations in a final volume of 30 μl/well. Plates were incubated for 1 hour at room temperature. Following this incubation step, plates were washed for 3× using 50 μl/well of a PBS+0.05% Tween 20 buffer. For the detection of bound Fabs and full-length antibodies, the anti-Human Lambda Light Chains (Bound and Free)—Peroxidase antibody (Sigma; catalogue number A5175) was diluted by the factor of 1:10.000 in 10% Blocking Buffer. 30 μl/well of this diluted detection antibody was added and plates are incubated for 1 hour at room temperature. Following this incubation step, plates were washed for 3× using 50 μl/well of a PBS+0.05% Tween 20 buffer. As substrate, a mixture of 30 μl/well of 1:1000 diluted Amplex red (Invitrogen; catalogue number 12222; stock solution 10 mM in DMSO) and 1:10.000 of Hydrogen peroxide (Merck; catalogue number 107209; 30% stock solution) was added and the plates incubated for minutes in the dark.
(§2) For measurement, the Infinite f500 reader (Tecan) was used. Measurement mode: Fluorescence; Top reading; Ex 535 nm; Em 590 nm.
(§3) According to the methods described in Example 3 and Example 4, antibodies TPP-14323, TPP-14318, TPP-14314, TPP-14313, TPP-14308, TPP-14305, TPP-14303, TPP-14298, and TPP-14293 were tested for their ability to bind to and to block the activity of human alpha2-Antiplasmin in a dose-dependent manner. For each antibody, one dose response curve from two to three independent experiments performed in quadruplicate is shown as example in FIG. 7.1 to FIG. 7.18. (see Table 3.3)

human alpha2-Antiplasmin [3] = target: T1, human alpha2-Antiplasmin; test: ELISA, coated antigen, 2nd exp.
Description: as §1, §2, §3

human alpha2-Antiplasmin [4] = target: T1, human alpha2-Antiplasmin; test: ELISA, coated antigen, 3rd exp.
Description: as §1, §2, §3

human alpha2-Antiplasmin [5] = target: T1, human alpha2-Antiplasmin; test: cell-based or functional assay; remark: listed apart in the source
human alpha2-Antiplasmin [6] = target: T1, human alpha2-Antiplasmin; test: cell-based or functional assay; remark: listed apart in the source
human alpha2-Antiplasmin [7] = target: T1, human alpha2-Antiplasmin; test: ELISA, coated antigen, 3rd exp.; 3rd exp.
Description: as §1, with “30 μl/well of this diluted detection antibody was added and plates are incubated for 1 hour at room temperature. Following this incubation step, plates were washed for 3× using 50 μl/well of a PBS+0.05% Tween 20 buffer. As substrate, a mixture of 30 μl/well of 1:1000 diluted Amplex red (Invitrogen; catalogue number 12222; stock solution 10 mM in DMSO) and 1:10.000 of Hydrogen peroxide (Merck; catalogue number 107209; 30% stock solution) was added and the plates incubated for minutes in the dark.” left out
(§4) For measurement, the Infinite f500 reader (Tecan) was used. Measurement mode: Fluorescence; Top reading; Ex 535 nm; Em 590 nm. […]

human alpha2-Antiplasmin [8] = target: T1, human alpha2-Antiplasmin; test: cell-based or functional assay; remark: listed apart in the source
human alpha2-Antiplasmin [9] = target: T1, human alpha2-Antiplasmin; test: cell-based or functional assay; remark: listed apart in the source
human alpha2-Antiplasmin [10] = target: T1, human alpha2-Antiplasmin; test: cell-based or functional assay; remark: listed apart in the source
human alpha2-Antiplasmin [11] = target: T1, human alpha2-Antiplasmin; test: ELISA (Example 3), human alpha2-Antiplasmin coated, RFU
Description: as §1, with “As substrate, a mixture of 30 μl/well of 1:1000 diluted Amplex red (Invitrogen; catalogue number 12222; stock solution 10 mM in DMSO) and 1:10.000 of Hydrogen peroxide (Merck; catalogue number 107209; 30% stock solution) was added and the plates incubated for minutes in the dark.” left out
as §2
According to the method described in Example 3, these 12 antibodies were tested for ability to bind human and rabbit alpha2-Antiplasmin in a dose-dependent manner. Data generated were analyzed using the GraphPadPrism software. The binding activities of the antibodies were calculated as EC50 values. […]

human alpha2-Antiplasmin [12] = target: T1, human alpha2-Antiplasmin; test: ELISA, coated antigen, quantified unpurified antibody, 1st exp.
human alpha2-Antiplasmin [13] = target: T1, human alpha2-Antiplasmin; test: ELISA, coated antigen, quantified unpurified antibody, 2nd exp.
human alpha2-Antiplasmin [14] = target: T1, human alpha2-Antiplasmin; test: ELISA, coated antigen, quantified unpurified antibody, 3rd exp.
Description: as §1, §2

human alpha2-Antiplasmin [15] = target: T1, human alpha2-Antiplasmin; test: SPR Biacore T200, antibody captured on protein G chip, A2AP as analyte, 25 C
Description: (§5) Binding assays were performed on a Biacore T200 instrument at 25° C. with a protein G sensor chip and assay buffer HBS-EP+. Antibodies were captured to ˜150 RU and analytes were used at concentrations between 1.56 and 200 nM for full kinetics. As interaction partner, alpha2-Antiplasmin from human, cynomolgus and rabbit was used. Regeneration was performed with glycine-HCl pH 1.5. Kinetic parameters were derived by fitting experimental sensorgrams to a 1:1 Langmuir binding model.

[16] = target: T2, rabbit alpha2-Antiplasmin; test: as above
Description: as §5

[17] = target: T3, cynomolgus alpha2-Antiplasmin; test: as above
Description: as §5

human alpha2-Antiplasmin [18] = target: T1, human alpha2-Antiplasmin; test: cell-based or functional assay; remark: listed apart in the source
human alpha2-Antiplasmin [19] = target: T1, human alpha2-Antiplasmin; test: ELISA, coated antigen, 1st exp.; 1st exp.
Description: as §1, with “30 μl/well of this diluted detection antibody was added and plates are incubated for 1 hour at room temperature. Following this incubation step, plates were washed for 3× using 50 μl/well of a PBS+0.05% Tween 20 buffer. As substrate, a mixture of 30 μl/well of 1:1000 diluted Amplex red (Invitrogen; catalogue number 12222; stock solution 10 mM in DMSO) and 1:10.000 of Hydrogen peroxide (Merck; catalogue number 107209; 30% stock solution) was added and the plates incubated for minutes in the dark.” left out
as §4

Sequence of human Plasmin (P00747 97-580 limits assumed, chain 1 of 2): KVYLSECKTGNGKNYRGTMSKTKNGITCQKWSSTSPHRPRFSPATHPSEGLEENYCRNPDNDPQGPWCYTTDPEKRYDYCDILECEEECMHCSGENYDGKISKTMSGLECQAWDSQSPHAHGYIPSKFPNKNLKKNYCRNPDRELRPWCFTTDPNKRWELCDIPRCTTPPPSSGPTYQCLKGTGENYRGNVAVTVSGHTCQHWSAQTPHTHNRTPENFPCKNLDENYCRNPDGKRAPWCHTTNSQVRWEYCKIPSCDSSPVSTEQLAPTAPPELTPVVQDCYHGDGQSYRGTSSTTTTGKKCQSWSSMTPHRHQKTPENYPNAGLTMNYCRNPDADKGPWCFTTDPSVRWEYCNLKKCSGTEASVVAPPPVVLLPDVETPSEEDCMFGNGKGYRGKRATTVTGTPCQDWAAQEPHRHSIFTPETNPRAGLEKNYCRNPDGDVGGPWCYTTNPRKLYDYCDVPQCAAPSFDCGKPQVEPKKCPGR
Sequence of human Plasmin (P00747 581-810 limits assumed, chain 2 of 2): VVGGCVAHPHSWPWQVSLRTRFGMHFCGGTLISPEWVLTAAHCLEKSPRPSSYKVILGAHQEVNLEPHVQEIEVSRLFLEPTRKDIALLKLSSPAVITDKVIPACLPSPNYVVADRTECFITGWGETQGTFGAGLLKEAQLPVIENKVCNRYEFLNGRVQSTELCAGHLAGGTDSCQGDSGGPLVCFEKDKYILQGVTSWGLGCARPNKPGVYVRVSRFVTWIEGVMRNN

Binder	function blocking activity [IC50 M], 1st exp. (human alpha2-Antiplasmin [1])	function blocking activity [IC50 M], 2nd exp. (human alpha2-Antiplasmin [1])	function blocking activity [IC50 M], 3rd exp. (human alpha2-Antiplasmin [1])	IC50 [M], inhibition of plasmin proteolytic activity (human Plasmin)	EC50 (human alpha2-Antiplasmin [2])	EC50 (human alpha2-Antiplasmin [3])	EC50 (human alpha2-Antiplasmin [4])	also measured
TPP-14293 hIgG1 (antibody, V domains shown) VH: EVQLLESGGGLVQPGGSLRLSCAASGFTFDDYAMSWVRQAPGKGLEWVSAIGTGGGTYYADSVKGRFTISRDNSKNTLYLQMNSLRAEDTAVYYCDREYYDSSGYYHLDYWGQGTLVTVSS VL: QSVLTQPPSASGTPGQRVTISCTGSSSNIGATYDVHWYQQLPGTAPKLLIYSNNQRPSGVPDRFSGSKSGTSASLAISGLRSEDEADYYCAAWDWSLSGWVFGGGTKLTVLG	46 nM	48 nM	50 nM	> 5e-06 M	12 nM	12 nM	12 nM	EC50 (read off the curve); function blocking assay (Example 4), RFU of plasmin substrate cleavage (human alpha2-Antiplasmin [5]): ~50 nM
TPP-14303 hIgG1 (antibody, V domains shown) VH: EVQLLESGGGLVQPGGSLRLSCAASGFTFDDYAMSWVRQAPGKGLEWVSAIGTGGGTYYADSVKGRFTISRDNSKNTLYLQMNSLRAEDTAVYYCAREDYDSSGYYHLDYWGQGTLVTVSS VL: QSVLTQPPSASGTPGQRVTISCTGSSSNIGATYDVHWYQQLPGTAPKLLIYSNNQRPSGVPDRFSGSKSGTSASLAISGLRSEDEADYYCAAWDWSLSGWVFGGGTKLTVLG	85 nM	89 nM	94 nM	> 1e-05 M	24 nM	29 nM	–	EC50 (read off the curve); function blocking assay (Example 4), RFU of plasmin substrate cleavage (human alpha2-Antiplasmin [6]): ~80 nM; EC50 (human alpha2-Antiplasmin [7]): 27 nM
TPP-17053 hIgG1 (antibody, V domains shown, Germline variant of TPP-14308) VH: EVQLLESGGGLVQPGGSLRLSCAASGFTFDDYAMSWVRQAPGKGLEWVSAIGSGGSTYYADSVKGRFTISRDNSKNTLYLQMNSLRAEDTAVYYCAREGYDSSGYYHLDYWGQGTLVTVSS VL: QSVLTQPPSASGTPGQRVTISCTGSSSNIGATYDVHWYQQLPGTAPKLLIYSNNQRPSGVPDRFSGSKSGTSASLAISGLRSEDEADYYCAAWDWSLSGWVFGGGTKLTVLG	–	–	–	> 1e-05 M	–	–	–	IC50, A2AP function blocking assay (Example 10) (human alpha2-Antiplasmin [8]): 150 pM; function blocking activity [IC50 M], 1st exp. (human alpha2-Antiplasmin [9]): 430 pM; function blocking activity [IC50 M], 2nd exp. (human alpha2-Antiplasmin [9]): 650 pM; function blocking activity [IC50 M], 3rd exp. (human alpha2-Antiplasmin [9]): 500 pM; EC50 (read off the curve); function blocking assay (Example 4), RFU of plasmin substrate cleavage (human alpha2-Antiplasmin [10]): ~400 pM; EC50 (read off the curve) (human alpha2-Antiplasmin [11]): ~500 pM; EC50 (human alpha2-Antiplasmin [12]): 0.52 nM; EC50 (human alpha2-Antiplasmin [13]): 0.58 nM; EC50 (human alpha2-Antiplasmin [14]): 0.63 nM; Kd (human alpha2-Antiplasmin [15]): 11 nM; Kd [16]: 28 nM; Kd [17]: 8.7 nM
TPP-14298 hIgG1 (antibody, V domains shown) VH: EVQLLESGGGLVQPGGSLRLSCAASGFTFDDYAMSWVRQAPGKGLEWVSAIGTGGGTYYADSVKGRFTISRDNSKNTLYLQMNSLRAEDTAVYYCASEYYDSSGYYHLDYWGQGTLVTVSS VL: QSVLTQPPSASGTPGQRVTISCTGSSSNIGATYDVHWYQQLPGTAPKLLIYSNNQRPSGVPDRFSGSKSGTSASLAISGLRSEDEADYYCAAWDWSLSGWVFGGGTKLTVLG	31 nM	37 nM	40 nM	> 5e-06 M	–	62 nM	58 nM	EC50 (read off the curve); function blocking assay (Example 4), RFU of plasmin substrate cleavage (human alpha2-Antiplasmin [18]): ~30 nM; EC50 (human alpha2-Antiplasmin [19]): 5.7 nM
